Laboratory results published in doi:10.1101/2022.02.07.479474.

Tests used:
Assay in all cases: NMR
PBRM1 BD2 SKY = PBRM1 BD2 SKY (UniProt Q86U86 178-291, S275A;K277A;Y281A)
PBRM1 BD2 = PBRM1 BD2 (UniProt Q86U86 178-291)
PBRM1 BD4 KRK = PBRM1 BD4 KRK (UniProt Q86U86 496-637, K511A;R512A;K513A)
PBRM1 BD4 = PBRM1 BD4 (UniProt Q86U86 496-637)
PBRM1 BD4, sequence (Q86U86 496-637): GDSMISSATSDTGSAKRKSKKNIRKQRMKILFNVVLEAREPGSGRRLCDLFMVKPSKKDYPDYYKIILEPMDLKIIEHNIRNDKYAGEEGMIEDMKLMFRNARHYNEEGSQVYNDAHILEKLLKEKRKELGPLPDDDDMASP

PBRM1 BD2, sequence (Q86U86 178-291): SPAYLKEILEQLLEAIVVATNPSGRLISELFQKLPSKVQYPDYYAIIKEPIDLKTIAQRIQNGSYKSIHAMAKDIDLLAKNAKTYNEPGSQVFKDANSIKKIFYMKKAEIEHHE
PBRM1 BD4 KRK, sequence (Q86U86 496-637 K511A/R512A/K513A): as the sequence (Q86U86 496-637) above, with K16A, R17A, K18A counted along it
PBRM1 BD2 SKY, sequence (Q86U86 178-291 S275A/K277A/Y281A): as the sequence (Q86U86 178-291) above, with S98A, K100A, Y104A counted along it

Binder GCGUAGACAGCUGUUCGCAGCUGUCUAUGC (structured_RNA) [dsRNAI] has a Kd (PBRM1 BD2 SKY) of 200 ± 70 µM, a Kd (PBRM1 BD2) of 25 ± 8 µM and a Kd (PBRM1 BD4 KRK) of 1020 ± 40 µM. For the same binder, the Kd (PBRM1 BD4) was 120 ± 20 µM.
